Source: patent US9296810 (Novartis, dated 2016)
Positions count from the first letter of the chain named. Each block holds one binder with its values, some of them ahead of it.

What was measured:
[1] = target: T1, Human Serum Albumin (HSA) (human, UniProt P02768 25-609); assay: yeast display selection
[2] = target: T1, Human Serum Albumin (HSA); assay: sandwich ELISA: VEGFR2-Fc immobilized, cleared lysate, then HSA, anti-HSA-HRP detection
Protocol: (§1) The binding characteristic of the multispecific and bispecific binders from Examples 6 and 7 were assessed as follows. […] Aliquots of cleared lysate of wild-type Fn10 (lane1), clone 87 (multispecific) (lane2), clone 89 (bispecific) (lane3) and PBS were added to the wells and incubated for 1 hour at room-temperature. These were run at different concentrations 1, 2 and 3. After washing 5 times with PBS/0.05% Tween, the wells were incubated with 1 µg/ml HSA in PBS. Detection was performed with HRP conjugated chicken anti-human HSA antibody (Abcam). The ELISA was developed with a […] substrate and the OD-values measured at 450 nm.

[3] = target: T1, Human Serum Albumin (HSA); assay: sandwich ELISA
Protocol: as §1

[4] = target: T1, Human Serum Albumin (HSA); assay: yeast display selection and ELISA screen of the HSA library
Summary of the method: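 Single clones from the HSA library were expressed in E. coli overnight at 37 °C in OvernightExpress medium in 96 deep-well plates, freeze-thawed, lysed with lysozyme/EDTA then DNaseI, and cleared. Wells coated overnight at 4 °C with 1.0 µg/mL HSA and blocked with casein received 50 µL lysate for 1 hour, then were washed. Binding was detected with HRP anti-His-tag antibody and TMB substrate, read as optical density at 450 nm per clone extract.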

T1 sequence (P02768 25-609 limits assumed): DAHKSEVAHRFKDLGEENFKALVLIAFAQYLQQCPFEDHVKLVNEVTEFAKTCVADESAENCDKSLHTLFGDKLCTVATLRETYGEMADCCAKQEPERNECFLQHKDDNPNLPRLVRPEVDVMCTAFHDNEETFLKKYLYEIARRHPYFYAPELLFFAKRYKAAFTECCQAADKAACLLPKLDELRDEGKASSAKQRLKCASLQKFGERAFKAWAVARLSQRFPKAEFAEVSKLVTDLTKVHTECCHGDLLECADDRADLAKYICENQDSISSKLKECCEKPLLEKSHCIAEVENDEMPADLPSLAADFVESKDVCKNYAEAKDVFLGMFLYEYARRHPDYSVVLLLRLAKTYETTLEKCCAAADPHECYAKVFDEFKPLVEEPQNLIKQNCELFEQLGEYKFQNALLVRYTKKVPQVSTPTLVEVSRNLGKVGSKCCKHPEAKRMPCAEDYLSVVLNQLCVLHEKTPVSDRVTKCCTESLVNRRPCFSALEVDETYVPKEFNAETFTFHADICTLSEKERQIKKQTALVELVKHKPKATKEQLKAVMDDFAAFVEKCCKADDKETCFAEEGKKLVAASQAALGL

- binding result [1]: binds
B20: SEQ ID NO 22 (designed binder)
chain: VSDVPRDLEVVAATPTSLLISWDAPAVTVRYYRITYGKSHGHRQKHEFTVPGSKSTATISDYRQGGDYTITVYAVTGRGDSPASSKPISINYKGEL

- binding result [3]: binds
B21: clone 87 (multispecific Fn3-based binding molecule; VEGFR2 top side binder fused to bottom side sequence 8 from FIG. 7 with GS linker) (designed binder)
chain: MGVSDVPRDLEVVAATPTSLLISWRHPHFPTRYYRITYGETGGNSPVQEFTVPLQPPLATISGLKPGVDYTITVYAVTKERNGRELFTPISINYRTGGGGSGGGGSVSDVPRDLEVVAATPTSLLISWDAPAVTVRYYRITYGRTDAKSTRKEFTVPGSKSTATIGELKRGRDYTITVYAVTGRGDSPASSKPISINYRPEKENLYFQGHHHHHH
notes: ELISA used cleared lysate, Biacore soluble protein; also called Fibronectin clone 87 (multispecific)

- binding result [1]: binds
B22: SEQ ID NO 37 (designed binder)
chain: VSDVPRDLEVVAATPTSLLISWDAPAVTVRYYRITYGKLSQPTKRREFTVPGSKSTATISRLKPGLDYTITVYAVTGRGDSPASSKPISINYHYEL

- binding result [1]: binds
B23: SEQ ID NO 24 (designed binder)
chain: VSDVPRDLEVVAATPTSLLISWDAPAVTVRYYRITYGEASKNHRQHEFTVPGSKSTATISRIKRGTDYTITVYAVTGRGDSPASSKPISINYSPES

- binding result [1]: binds
B24: SEQ ID NO 16 (designed binder)
chain: VSDVPRDLEVVAATPTSLLISWDAPAVTVRYYRITYGITGKEKSFVEFTVPGSKSTATIRDVKKGKDYTITVYAVTGRGDSPASSKPISINYRAET

- binding result [1]: binds
B25: SEQ ID NO 27 (designed binder)
chain: VSDVPRDLEVVAATPTSLLISWDAPAVTVRYYRITYGLTKRKSLISEFTVPGSKSTATIIGLKAGKDYTITVYAVTGRGDSPASSKPISINYKTEN

- binding result [1]: binds
B26: SEQ ID NO 34 (designed binder)
chain: VSDVPRDLEVVAATPTSLLITWDAPAVTVRYYRITYGVAGKTKPRSEFTVPGSKSTATIPHLKLGHDYTITVYAVTGRGDSPASSKPISINYRAEH

- binding result [4]: binds
B27: SEQ ID NO 8 (designed binder)
chain: VSDVPRDLEVVAATPTSLLISWDAPAVTVRYYRITYGRTDAKSTRKEFTVPGSKSTATIGELKRGRDYTITVYAVTGRGDSPASSKPISINYRPEK
notes: used to build clone 87 and clone 89

- binding result [1]: binds
B28: SEQ ID NO 18 (designed binder)
chain: VSDVPRDLEVVAATPTSLLISWDAPAVTVRYYRITYGHTAKTRHHHEFTVPGSKSTATICKSRRGSDYTITVYAVTGRGDSPASSKPISINYQAET

- binding result [1]: binds
B29: SEQ ID NO 38 (designed binder)
chain: VSDVPRDLEVVAATPTSLLISWDAPAVTVRYYRITYGKSSHNSAAKEFTVPGSKSTATITRLKSGTDYTITVYAVTGRGDSPASSKPISINYKPEY

- binding result [1]: binds
B30: SEQ ID NO 26 (designed binder)
chain: VSDVPRDLEVVAATPTSLLISWDAPAVTVRYYRITYGKTARKYHMQEFTVPGSKSTATISGIKRGTDYTITVYAVTGRGDSPASSKPISINYNSEH

Second part, the binder before the results:

B1: SEQ ID NO 14 (designed binder)
chain: VSDVPRDLEVVAATPTSLLISWDAPAVTVRYYRITYGVLSSTKHLKEFTVPGSKSTATISGLKLGRDYTITVYAVTGRGDSPASSKPISINYRMES
- binding result [1]: binds

B2: SEQ ID NO 23 (designed binder)
chain: B1 chain with L39M, S40G, S41D, H44K, L45V, S60E, G61R, L62I, M94K, S96H
- binding result [1]: binds

B3: SEQ ID NO 15 (designed binder)
chain: B1 chain with V38S, L39R, S40A, T42H, K43R, H44K, K46T, L64T, M94T, S96H
- binding result [1]: binds

B4: SEQ ID NO 32 (designed binder)
chain: B1 chain with V38M, L39I, S41G, T42D, H44R, L45R, K46R, S60D, G61R, M94L
- binding result [1]: binds

B5: SEQ ID NO 35 (designed binder)
chain: VSDVPRDLEVVAATPTSLLISWDAPAVTVRYYRITYGKNGRHNLDHEFTVPGSKSTATISGLKRGVDYTITVYAVTGRGDSPASSKPISINYHNEN
- binding result [1]: binds

B6: SEQ ID NO 36 (designed binder)
chain: VSDVPRDLEVVAATPTSLLISWDAPAVTVRYYRITYGNIVAANALPEFTVPGSKSTATITGLMSGIDYTITVYAVTGRGDSPASSKPISINYSTEY
- binding result [1]: binds

B7: SEQ ID NO 39 (designed binder)
chain: VSDVPRDLEVVAATPTSLLISWDAPAVTVRYYRITYGKKHKHTTVREFTVPGSKSTATIAGKSLGGDYTITVYAVTGRGDSPASSKPISINYTSET
- binding result [1]: binds

B8: SEQ ID NO 33 (designed binder)
chain: VSDVPRDLEVVAATPTSLLISWDAPAVTVRYYRITYGVMHDKHPKKEFTVPGSKSTATISGLKRGRDYTITVYAVTGRGDSPASSKPISINYKSEA
- binding result [1]: binds

B9: SEQ ID NO 30 (designed binder)
chain: VSDVPRDLEVVAATPTSLLISWDAPAVTVRYYRITYGIPAKKHHTHEFTVPGSKSTATITGLKSGVDYTITVYAVTGRGDSPASSKPISINYRTET
- binding result [1]: binds

B10: SEQ ID NO 21 (designed binder)
chain: VSDVPRDLEVVAATPTSLLISWDAPAVTVRYYRITYGDSRHHPRAHEFTVPGSKSTATITGCKRGHDYTITVYAVTGRGDSPASSKPISINYRYEH
- binding result [1]: binds

B11: SEQ ID NO 25 (designed binder)
chain: VSDVPRDLEVVAATPTSLLISWDAPAVTVRYYRITYGEKPRKYRSSEFTVPGSKSTATIRHSKHGKDYTITVYAVTGRGDSPASSKPISINYMREI
- binding result [1]: binds

B12: clone 89 (bispecific Fn3-based binding molecule; VEGFR2/Bottom side SEQ ID NO: 8 merged molecule) (designed binder)
chain: MGVSDVPRDLEVVAATPTSLLISWRHPHFPTRYYRITYGRTDAKSTRKEFTVPLQPPLATIGELKRGRDYTITVYAVTKERNGRELFTPISINYRPEKENLYFQGHHHHHH
notes: the entry ends in ENLYFQG-HHHHHH; also called VEGFR2-HAS; single bispecific fibronectin molecule
- binding result [2]: binds

B13: SEQ ID NO 41 (designed binder)
chain: VSNIPKDLEVVAATPTSLLISWDAPAVTVRYYRITYGQTMNGQSNVEFTVPGSKSTATISPSKLGLDYTITVYAVTGRGDSPASSKPISINYLSET
- binding result [1]: binds

B14: SEQ ID NO 17 (designed binder)
chain: VSDVPRDLEVVAATPTSLLISWDAPAVTVRYYRITYGQRVGKTKVHEFTVPGSKSTATIRGLKRGKDYTITVYAVTGRGDSPASSKPISINYFPET
- binding result [1]: binds

B15: SEQ ID NO 31 (designed binder)
chain: VSDVPRDLEVVAATPTSLLISWDAPAVTVRYYRITYGEVHGHHTAHEFTVPGSKSTATIVRLKRGKDYTITVYAVTGRGDSPASSKPISINYCPER
- binding result [1]: binds

B16: SEQ ID NO 28 (designed binder)
chain: VSDVPRDLEVVAATPTSLLISWDAPAVTVRYYRITYGKVKAKAPLVEFTVPGSKSTATISSLKTGKDYTITVYAVTGRGDSPASSKPISINYRYEG
- binding result [1]: binds

B17: SEQ ID NO 40 (designed binder)
chain: VSDVPRDLEVVAATPTSLLISWDAPAVTVRYYRITYGRPGHNSKVHEFTVPGSKSTATIDGAKKGHDYTITVYAVTGRGDSPASSKPISINYIMEH
- binding result [1]: binds

B18: SEQ ID NO 19 (designed binder)
chain: VSDVPRDLEVVAATPTSLLISWDAPAVTVRYYRITYGYGAANRRAHEFTVPGSKSTATISGLKRGRDYTITVYAVTGRGDSPASSKPISINYRHEL
- binding result [1]: binds

B19: SEQ ID NO 29 (designed binder)
chain: B18 chain with Y38D, G39R, A41K, R43T, A45I, H46K, H94L, L96G
- binding result [1]: binds
